Data published in the DeepSol protein solubility set.

Experiment: soluble on expression in E. coli; label from the status in PepcDB or PDB records
With “SLKKIVESTTFPRTKQSITEDLKALGLKKGMTVLVHSSLSSIGWVNGGAVAVIQALIDVVTEEGTIVMPSQSVELSDPKEWGNPPVPEEWWDIIRESMPAYNSNYTPTTRGMGQIVELFRSYPEVKRSNHPNYSFVAWGKHKNKILNQHPLEFGLGEQSPLGKLYIRESYVLLLGADFDSSTCFHLAEYRIPYQKIINRGAPIIVEGKRVWKEYKELEFREELFQEVGQAFEAEHNMKVGKVGSANCRLFSLTEAVDFAEKWFINNDSKNIKK” the “soluble on expression in E. coli” value was “soluble”. In the case of “MSLNDKAILVGVDGSHASYKATWWAANYAKHAGLTLQIVCAYSLPSYAAVSFDATYTAMGDDNAAHNDAQEILSKAKAIADEQGVEASTLIVTGDPASVFVELSRNYNLIVIGNRGKGGLAERLLGTTSSSLPAYAYCPIVVVPYTDDEGNLMHLNNTITKVAVGSDESKWGLKALEIAAAFADSWGAELDVISAVPNMKGSEDEGVMASFQEDLDVRIKPLEAAYPSLKINKQIVPGPAAGALTKASYDHDVVVVGSRGRGGFTGLLLGSTSQGLLQHAVGPVYVVPRKYVEAAETRLDTVPSSPADVTPKAIDDIKGVEEVPVDKAKPEVVEAIETKIDPDREGHHHHHH”, the “soluble on expression in E. coli” value is reported as “soluble”. With “MVKIAIITYSTYGHIDVLAQAVKKGVEAAGGKADIYRVEETLPDEVLTKMNAPQKPEDIPVATEKTLLEYDAFLFGVPTRFGNLPAQWSAFWDKTGGLWAKGSLNGKAAGIFVSTSSYGGGQESTVKACLSYLAHHGIIFLPLGYKNSFAELASIEEVHGGSPWGAGTLAGPDGSRTASPLELRIAEIQGKTFYETAKKLFPAKEAKPSTEKKTTTSDAAKRQTKPAAATTAEKKEDKGLLSCCTVM” the “soluble on expression in E. coli” value was “soluble”. With “MGHHHHHHSHMGEGQIPPAHDSSIFISCDVLLKKISINTRTWLPCSISCSASLLENSPFYFTLFVCDYISHSFHLLINIFSEIMSYHGNGGYNAPYGGHGGYAPPPVHGAPGYMPPTVVHTDGGHHGHVDTHHHEESHHGEHHGGHHGVQHYESHHESHHHGGHHGHH” the “soluble on expression in E. coli” value was “not soluble”. In the case of “NNAKEALELCDKRDWDLAELSYRYELQFHTKEEICAYCLEIWEVMQEVYYNGTHPNEDYLPGKLHLKRRAKGLKERVAMTADPMGIIDFISLYAIAIAEENASGAKVVTAPTNGACAVIPAVMLYLKNHTIGFSDEKVIEFLLTAMLIGSFYKKNASISGAEAGCQAEIGSASSMAAAAMATVLGANAFKACNAAEMAMEHHLGLTCDPVAGLVQIPCIERNAFGAIKAISAARMAMTRKSTPMVSLDEVIETMYETGKDMNYKYKETSLGGLATN”, the “soluble on expression in E. coli” value is reported as “not soluble”. In the case of “AHHHHHHGSVKIGVIGLQGDVSEHIEATKRALERLGIEGSVIWVKRPEQLNQIDGVIIPGGESTTISRLMQRTGLFDPLKKMIEDGLPAMGTCAGLIMLAKEVIGATPEQKFLEVLDVKVNRNAYGRQVDSFEAPVKLAFDDKPFIGVFIRAPRIVELLSDKVKPLAWLEDRVVGVEQGNVIGLEFHPELTDDTRIHEYFLKKIV”, the “soluble on expression in E. coli” value is reported as “soluble”. In the case of “SMQEKIMRELHVKPSIDPKQEIEDRVNFLKQYVKKTGAKGFVLGISGGQDSTLAGRLAQLAVESIREEGGDAQFIAVRLPHGTQQDEDDAQLALKFIKPDKSWKFDIKSTVSAFSDQYQQETGDQLTDFNKGNVKARTRMIAQYAIGGQEGLLVLGTDHAAEAVTGFFTKYGDGGADLLPLTGLTKRQGRTLLKELGAPERLYLKEPTADLLDEKPQQSDETELGISYDEIDDYLEGKEVSAKVSEALEKRYSMTEHKRQVPASMFDDWWK”, the “soluble on expression in E. coli” value is reported as “soluble”. For “MGSDKIHHHHHHLFSEAQMQKMGAESFASMNQEQKVSKDKALTTYVNCVAKRITDVLPGEAKPWELVLFESDQVNAFAVPGGFIGVYTGLLNVANTQDQLATVLGHEVAHVLAHHGNEQVSRAQMTGLGIQLADVALGAGGVSNKDLYMQALGLGAKVGYILPFGRTQESEADVMGLELMAKAGFDPSQSITLWQNMAKAGGAQGPELLSTHPSNERRIQDLQGLQGRVAPLYLAARETQLAKCIQPGKK”, the “soluble on expression in E. coli” value was “not soluble”. With “MAHHHHHHMEEGAPTPAAPVGEDQEVAAAPATEEPASIMQVENTNFNWADDDIQFQIRQPQYAAEYPVSVLENLARNVTFKVPEDQNTMTSAIEALARERQAFEQMKRNHEDAMKSREVELNAQEATLQARERQLHANTETLAAERQQLILQQSQFRAQQAQAQAQSQAQAQTQSQPRTSSQTQSPAAQVSPSPAQAAQPAHAPQLQHQMPPPHQQPQPRSGNVYMGGGYGAQEWQPDQRTWGNEGAMGAPGFDMYQGAYPGSYAQRNYHMAGGHRGQMRSGNLPQQQFPGNRMQPMMPPPQQYSRSMAPLGAARQQQMDMNFGGRSQQSYNPAPNTGYPQRSAQW” the “soluble on expression in E. coli” value was “soluble”. With “MAHHHHHHMLRHFQRDVRGGSSSRRKLPRSVVGERSEEGSGTSKDPFVLSLREIPNRSGCYHCVEDCCECLWITELLAVCYGSLPTRRQVMTYRKRERCAKSILPPFVARIVRVAKISSQDTFYDLGCGNGSVLFQVALLTGARCVGVEINERNATVAQDAWRRLRPMIEARRGEPVEVEIICADFCSLMRDEKFFGSSPVIWAANLLMPGPVNHYLSERFRLLPKGSRVLCLEDLYPHGRSVAKFRDPDAFEMFAMTDFKWQTKSVEWCDTEGPFSMYTKRT” the “soluble on expression in E. coli” value was “not soluble”. For “MYLKETLDQFTSINNILKLLKKSPGFNKYCIQERLPKETVITSDKRRKYIYIIEDGFMKLVFEGTNKHNFSYILQKGAFPHLPVYTEDIPKHMMLIALTDVVWWKIEFQFFKEMMELEDPRNYIMLHQLAETRRRLYIIAVQEKLSSRESIYFSLNTMIDYGLRVSEKAVELPKFLTYQILADNSNTSKSYTSKVLSNLREKGILESQKKPWRINDVQKLQELIDAEALLAIL”, the “soluble on expression in E. coli” value was “not soluble”. With “MGHHHHHHSHAPALGGQQSVSNKLLAWSGVLEWQEKPKPASVDANTKLTRSLPCQVYVNHGENLKTEQWPQKLIMQLIPQQLLTTLGPLFRNSRMVQFHFTNKDLESLKGLYRIMGNGFAGCVHFPHTAPCEVRVLMLLYSSKKKIFMGLIPYDQSGFVNGIRQVITNHKQVQQQKLEQQQRGMGGQQAPPGLGPILEDQARPSQNLLQLRPPQPQPQ” the “soluble on expression in E. coli” value was “not soluble”. In the case of “GQSITDYNYKKPLHNDYQILDKSKIFGSNSGSFVMYSMKKDKYYIYNEKESRKRYSPNSTYKIYLAMFGLDRHIINDENSRMSWNHKHYPFDAWNKEQDLNTAMQNSVNWYFERISDQIPKNYTATQLKQLNYGNKNLGSYKSYWMEDSLKISNLEQVIVFKNMMEQNNHFSKKAKNQLSSSLLIKKNEKYELYGKTGTGIVNGKYNNGWFVGYVITNHDKYYFATHLSDGKPSGKNAELISEKILKEMGVLNGQ”, the “soluble on expression in E. coli” value is reported as “soluble”. For “MGHHHHHHSHMALAARLLPQFLHSRSLPCGAVRLRTPAVAEVRLPSATLCYFCRCRLGLGAALFPRSARALAASALPAQGSRWPVLSSPGLPAAFASFPACPQRSYSTEEKPQQHQKTKMIVLGFSNPINWVRTRIKAFLIWAYFDKEFSITEFSEGAKQAFAHVSKLLSQCKFDLLEELVAKEVLHALKEKVTSLPDNHKNALAANIDEIVFTSTGGISIYYDEKGRKFVNILMCFWYLTSANIPSETLRGASVFQVKLGNQNVETKQLLSASYEFQREFTQGVKPDWTIARIEHSKLLE”, the “soluble on expression in E. coli” value was “not soluble”. With “SYHPLLSSSAKASADGFKPLPAIELLDRASESPTTVEIAATTTSDSCSDGARSRFQRLKVVLDLDETLVCAYETSSLPAALRNQAIEAGLKWFELECLSTDKEYDGKPKINYVTVFERPGLHEFLEQLSEFADLILFTAGLEGYARPLVDRIDTRKVLTNRLYRPSTVSTQYRDHVKDLLSTSKNMCRTVIVDNNPFSFLLQPSNGIPCIAFSAGQPNDTQLLDVILPLLKQLSEEDDVRPTLYDRFRMPEWFEKQGIPPSCWKP” the “soluble on expression in E. coli” value was “soluble”. For “MGHHHHHHSHMMEGLDDGPDFLSEEDRGLKAINVDLQSDAALQVDISDALSERDKVKFTVHTKSSLPNFKQNEFSVVRQHEEFIWLHDSFVENEDYAGYIIPPAPPRPDFDASREKLQKLGEGEGSMTKEEFTKMKQELEAEYLAIFKKTVAMHEVFLCRVAAHPILRRDLNFHVFLEYNQDLSVRGK”, the “soluble on expression in E. coli” value was “not soluble”.
